We go through one protein from article PMC2531280.

Substrate in the series: NCCc1c[nH]cn1
Nature of the series: purified protein. In kind it is biochemical, Pimelobacter simplex.

B1: histamine dehydrogenase (HADH) (Pimelobacter simplex) (protein)
chain: MTEQPAVAAPYDVLFEPVQIGPFTTKNRFYQVPHCNGMGYRDPSAQASMRKIKAEGGWSAVCTEQVEIHATSDIAPFIELRIWDDQDLPALKRIADAIHEGGGLAGIELAHNGMNAPNQLSRETPLGPGHLPVAPDTIAPIQARAMTKQDIDDLRRWHRNAVRRSIEAGYDIVYVYGAHGYSGVHHFLSKRYNQRTDEYGGSLENRMRLLRELLEDTLDECAGRAAVACRITVEEEIDGGITREDIEGVLRELGELPDLWDFAMGSWEGDSVTSRFAPEGRQEEFVAGLKKLTTKPVVGVGRFTSPDAMVRQIKAGILDLIGAARPSIADPFLPNKIRDGRLNLIRECIGCNICVSGDLTMSPIRCTQNPSMGEEWRRGWHPERIRAKESDARVLVVGAGPSGLEAARALGVRGYDVVLAEAGRDLGGRVTQESALPGLSAWGRVKEYREAVLAELPNVEIYRESPMTGDDIVEFGFEHVITATGATWRTDGVARFHTTALPIAEGMQVLGPDDLFAGRLPDGKKVVVYDDDHYYLGGVVAELLAQKGYEVSIVTPGAQVSSWTNNTFEVNRIQRRLIENGVARVTDHAVVAVGAGGVTVRDTYASIERELECDTVVMVTARLPREELYLDLVARRDAGEIASVRGIGDAWAPGTIAAAVWSGRRAAEEFDAVLPSNDEVPFRREVTQLA
One may read the Km as the concentration of substrate that gives half-maximal velocity. For orientation: kcat means the number of substrate molecules converted per active site and unit of time at saturation. On to B1, for which the Km was 24 µM and the kcat was 9.8 s⁻¹.
